The Immune Epitope Database (IEDB)

What was measured:
HLA-A*32:01 = assay: IEDB peptide-MHC binding, purified MHC/competitive/radioactivity; filed as Kd, often an IC50 or EC50 that approximates it; ≥ and ≤ were set here for values at or beyond the usual limits of such assays
HLA-B*08:01 = assay: as above
HLA-B*44:02 = assay: as above
HLA-B*44:03 = assay: as above
HLA-A*01:01 [1] = assay: IEDB peptide-MHC binding, purified MHC/direct/fluorescence; filed as Kd, often an IC50 or EC50 that approximates it; ≥ and ≤ were set here for values at or beyond the usual limits of such assays; details: source organism: SARS-CoV1
HLA-B*58:01 = assay: as above; details: source organism: SARS-CoV1
HLA-A*03:01 [2] = assay: as above; details: source organism: SARS-CoV1
HLA-B*15:01 = assay: as above; details: source organism: SARS-CoV1
HLA-A*26:01 = assay: IEDB peptide-MHC binding, purified MHC/competitive/radioactivity; filed as Kd, often an IC50 or EC50 that approximates it; ≥ and ≤ were set here for values at or beyond the usual limits of such assays; details: source organism: SARS coronavirus Tor2
HLA-A*29:02 = assay: as above
HLA-A*23:01 = assay: as above
HLA-A*30:02 = assay: as above; details: source organism: SARS coronavirus Tor2
HLA-A*24:02 [3] = assay: as above
HLA-A*24:02 [4] = assay: IEDB peptide-MHC binding, purified MHC/competitive/fluorescence; ≥ and ≤ were set here for values at or beyond the usual limits of such assays; details: source organism: Vaccinia virus WR
HLA-A*02:01 = assay: as above; details: source organism: Vaccinia virus WR
HLA-B*40:01 = assay: IEDB peptide-MHC binding, purified MHC/competitive/radioactivity; filed as Kd, often an IC50 or EC50 that approximates it; ≥ and ≤ were set here for values at or beyond the usual limits of such assays
HLA-A*01:01 [5] = assay: as above
HLA-A*11:01 = assay: as above; details: source organism: Vaccinia virus WR
HLA-A*31:01 = assay: as above
HLA-A*68:01 = assay: as above; details: source organism: Vaccinia virus WR
HLA-A*03:01 [6] = assay: as above; details: source organism: Vaccinia virus WR
HLA-A*33:01 = assay: as above
HLA-A*30:01 = assay: as above; details: source organism: Dengue virus 4 Philippines/H241/1956
[7] = source organism: Dengue virus 4 Philippines/H241/1956
[8] = source organism: Vaccinia virus WR
[9] = source organism: Dengue virus 3 Singapore/8120/1995
[10] = source organism: SARS coronavirus Tor2
[11] = source organism: Dengue virus 1 Brazil/97-11/1997
[12] = source organism: Vaccinia virus Copenhagen
[13] = source organism: Dengue virus 2 Jamaica/1409/1983
[14] = source organism: Mammarenavirus guanaritoense
[15] = source organism: Mammarenavirus machupoense
[16] = source organism: Dengue virus 3 Martinique/1243/1999
[17] = source organism: Dengue virus 4 Dominica/814669/1981

RTYCIEASI
Kd (HLA-A*32:01; [7]): 19.2 nM

SIHEKFWPL
Kd (HLA-B*08:01; [8]): 1.36 nM

KEEHSSTWHY
Kd (HLA-B*44:02; [9]): 42.2 nM | Kd (HLA-B*44:03; [9]): 205 nM

CADGTRHTY
Kd (HLA-A*01:01 [1]): 438 nM | Kd (HLA-B*58:01): 1210 nM | Kd (HLA-A*03:01 [2]): 9670 nM | Kd (HLA-B*15:01): 1260 nM | Kd (HLA-A*26:01): 2780 nM | Kd (HLA-A*29:02; [10]): 963 nM | Kd (HLA-A*23:01; [10]): ≥ 67600 nM | Kd (HLA-A*30:02): 39.8 nM | Kd (HLA-A*24:02 [3]; [10]): ≥ 37700 nM

TVYAKFASL
Kd (HLA-B*08:01; [8]): 1.64 nM

KKMIRPQPM
Kd (HLA-B*08:01; [11]): 188 nM

MMRNRTKPI
Kd (HLA-B*08:01; [12]): 1.49 nM

NDLKYSWKTW
Kd (HLA-B*44:02; [7]): 2720 nM | Kd (HLA-A*32:01; [7]): 8890 nM

NVEYRFLVI
IC50 (HLA-A*24:02 [4]): 13700 nM | IC50 (HLA-A*02:01): ≥ 144000 nM | Kd (HLA-B*08:01; [8]): 235 nM

QEVPFCSHHF
Kd (HLA-B*44:02; [7]): 12.2 nM | Kd (HLA-B*40:01; [7]): 4870 nM | Kd (HLA-B*44:03; [7]): 180 nM

AFIDTIKSL
Kd (HLA-A*26:01): ≥ 34200 nM | Kd (HLA-A*29:02; [10]): 2950 nM | Kd (HLA-A*01:01 [5]; [10]): ≥ 78100 nM | Kd (HLA-A*23:01; [10]): 5010 nM | Kd (HLA-A*30:02): 13600 nM | Kd (HLA-A*24:02 [3]; [10]): 10200 nM

QMQRKHGGML
Kd (HLA-B*08:01; [11]): 436 nM

KTPVESWEEV
Kd (HLA-A*32:01; [13]): 1620 nM

REDLWCGSL
Kd (HLA-B*40:01; [7]): 2.35 nM

LVKESMASLK
Kd (HLA-A*11:01): 11.3 nM | Kd (HLA-A*31:01; [8]): 64.5 nM | Kd (HLA-A*29:02; [8]): ≥ 53600 nM | Kd (HLA-A*68:01): 0.437 nM | Kd (HLA-A*03:01 [6]): 4.1 nM | Kd (HLA-A*33:01; [8]): 394 nM

AILLVAVSF
Kd (HLA-A*32:01; [13]): 12800 nM

SMLSIFNIV
Kd (HLA-B*08:01; [8]): ≥ 77700 nM

REEEEAGVL
Kd (HLA-B*40:01; [13]): 3.23 nM

ILLNNPNLF
Kd (HLA-A*29:02; [14]): 46.7 nM | Kd (HLA-A*23:01; [14]): 423 nM | Kd (HLA-A*24:02 [3]; [14]): 793 nM

GSIIQFPNTY
Kd (HLA-A*26:01): 1880 nM | Kd (HLA-A*29:02; [10]): 462 nM | Kd (HLA-A*01:01 [5]; [10]): 1050 nM | Kd (HLA-A*23:01; [10]): ≥ 70000 nM | Kd (HLA-A*30:02): 545 nM | Kd (HLA-A*24:02 [3]; [10]): ≥ 70300 nM

KETACLGKSY
Kd (HLA-B*44:03; [13]): 23.6 nM

ISKVRSNAA
Kd (HLA-B*08:01; [7]): 7.31 nM | Kd (HLA-A*30:01): 712 nM

LFARTRSMW
Kd (HLA-A*26:01): ≥ 77900 nM | Kd (HLA-A*29:02; [10]): 10200 nM | Kd (HLA-A*01:01 [5]; [10]): ≥ 78100 nM | Kd (HLA-A*23:01; [10]): 488 nM | Kd (HLA-A*30:02): ≥ 83300 nM | Kd (HLA-A*24:02 [3]; [10]): 146 nM

AEGVITQDDM
Kd (HLA-B*40:01; [7]): 1310 nM

GFKKRVNVF
Kd (HLA-B*08:01; [8]): 110 nM

GTINRILVI
Kd (HLA-A*32:01; [8]): 14.5 nM

CWFADTNLI
Kd (HLA-A*29:02; [15]): 1290 nM | Kd (HLA-A*23:01; [15]): 88.6 nM | Kd (HLA-A*24:02 [3]; [15]): 101 nM

RRVTRKHMIL
Kd (HLA-B*08:01; [7]): 64 nM

STANVSLAA
Kd (HLA-A*01:01 [5]; [16]): 2030 nM

FFVYENAFL
Kd (HLA-A*26:01): ≥ 32700 nM | Kd (HLA-A*29:02; [10]): ≥ 107000 nM | Kd (HLA-A*01:01 [5]; [10]): ≥ 78100 nM | Kd (HLA-A*23:01; [10]): 6780 nM | Kd (HLA-A*30:02): ≥ 96800 nM | Kd (HLA-A*24:02 [3]; [10]): 9050 nM

EEYVDYMPV
Kd (HLA-B*40:01; [7]): 190 nM

GEKKKLRPRW
Kd (HLA-B*44:02; [16]): 342 nM | Kd (HLA-B*44:03; [16]): 2600 nM

RLGYILEEI
Kd (HLA-A*32:01; [17]): 1110 nM

FFKCFRYVF
Kd (HLA-B*08:01; [12]): 10.9 nM

MTDTTPFGQ
Kd (HLA-A*01:01 [5]; [7]): 3770 nM

MFGGVSWMIR
Kd (HLA-A*31:01; [17]): 7.52 nM | Kd (HLA-A*33:01; [17]): 14.8 nM | Kd (HLA-A*32:01; [17]): 1430 nM

MWSFNPETNI
Kd (HLA-A*26:01): ≥ 39100 nM | Kd (HLA-A*29:02; [10]): 13300 nM | Kd (HLA-A*01:01 [5]; [10]): ≥ 70400 nM | Kd (HLA-A*23:01; [10]): 407 nM | Kd (HLA-A*30:02): ≥ 24700 nM | Kd (HLA-A*24:02 [3]; [10]): 551 nM

SPKERLPYI
Kd (HLA-B*08:01; [8]): 1040 nM

KITGNLVQI
Kd (HLA-A*32:01; [7]): 2710 nM

GYTMHANYIF
Kd (HLA-A*26:01): ≥ 41100 nM | Kd (HLA-A*29:02; [10]): 407 nM | Kd (HLA-A*01:01 [5]; [10]): ≥ 44100 nM | Kd (HLA-A*23:01; [10]): 16.4 nM | Kd (HLA-A*30:02): 7590 nM | Kd (HLA-A*24:02 [3]; [10]): 11.1 nM
